{"source": "patent US11988675B2", "about": "“Methods for quantifying frataxin activity” (Larimar Therapeutics, Inc., priority 2019, dated 2024)", "key": {"FXN fusion protein": {"target": "T1, FXN fusion protein (Homo sapiens, UniProt Q16595)", "T1 sequence (Q16595 with tags, fused parts or gaps)": "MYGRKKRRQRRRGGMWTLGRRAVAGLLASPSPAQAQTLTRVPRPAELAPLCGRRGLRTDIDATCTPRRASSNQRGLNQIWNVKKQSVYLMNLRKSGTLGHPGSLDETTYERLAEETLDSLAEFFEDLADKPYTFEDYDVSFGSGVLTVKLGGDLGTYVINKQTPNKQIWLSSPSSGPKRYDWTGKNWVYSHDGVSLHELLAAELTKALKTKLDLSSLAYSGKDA", "experiment": "HQ assay in the presence of NADH or NADPH (FIG. 3, Panel B)", "type": "biochemical", "settings": "added to the assay with Fe^3+", "experimental": "Redox activity of the FXN fusion protein was also measured in the presence of NADPH and NADH."}, "[1]": {"settings": "10 μM FXN fusion protein, 5 μM HQ, 5 μM Fe(III) sulfate", "experimental": "The goal of this experiment was to evaluate pH dependence of HQ-dependent superoxide generating activity of an exemplary FXN fusion protein. FXN fusion protein of SEQ ID NO: 12 was used in this experiment. Specifically, kinetics of superoxide generation by an exemplary FXN fusion protein was evaluated at pHs ranging from 7.0 to 9.0. Each reaction mixture contained 5 μM HQ, 5 μM Fe(III) sulfate, 0.05 μM H2DCF and 10 μM exemplary FXN fusion protein in 50 mM Tris-HCL at pH of 7.0, 7.4, 7.8, 8.0, 8.2, 8.5 and 9.0.\nThe assay plate was placed in the plate reader and the kinetic read began immediately after all assay ingredients were mixed together. The plate reader settings were as follows: 2-hour kinetic scan with a Fluorescent read (excitation 485/20, emission 528/25, and a gain of 50) every 5-minutes with a 10 second shake between reads. Maximum initial velocity (Vi) was determined for each well by measuring fastest change in arbitrary fluorescence unit (AFU) over 5 data points."}, "[2]": {"text": "The goal of the first part of the experiment was to validate performance of the HQ assay at the conditions used for the HTS. To this end, the HQ assay was characterized by measuring statistical parameters, such as signal-to-background (S/B) ratio, Z′ factor (which is a measure of the statistical robustness of the assay readout), and intra- and inter-plate variability. To this end, two 96-well plates were each split into 9 sections: 4 sections in each plate contained an exemplary FXN fusion protein at the concentration of 10 μM (high control); 4 sections contained the exemplary FXN fusion protein at the concentration of 0.5 μM (low control); and 1 section contained only the assay mix without the FXN fusion protein (blank control).\nH2DCF was activated by incubating in the dark 1 mL of 1 mM H2DCF-DA in 20 mL of 0.01 M NaOH for 30 minutes while stirring. Subsequently, 75 mL of 33 mM NaH2PO4 was added to the activation mixture to yield a final H2DCF concentration of 10 μM. This solution was stored at 4° C. and protected from light until use. The assay mix in each well contained 50 mM Tris-HCL (pH 8.0), 50 μM HQ, 1 μM MnCl2, 0.5 μM activated H2DCF and the exemplary FXN fusion protein at the concentration of 10 μM (high control), 0.5 μM (low control) and 0 μM (blank control). After the assay mix was added to the plate, the plate was immediately placed in the plate reader, and the kinetic read was initiated. The plate reader settings were as follows: 45-minute kinetic scan with a Fluorescent read (excitation 482/20, emission 530/25, and a gain of 50) every minute with a 3 second shake in between reads. Maximum initial velocity (Vi) was determined for each well by measuring the fastest change in arbitrary fluorescence unit (AFU) over 5 data points. The statistical parameters, such as signal-to-background (S/B) ratio, Z′ factor, and intra- and inter-plate variability were calculated to characterize the assay performance."}, "[3]": {"settings": "in the absence of Fe^3+; 10 μM FXN fusion protein, 10 μM HQ, 5 μM H2DCF"}, "FDRA mouse model": {"tested_on": "FDRA mouse model", "experiment": "Treatment of an FDRA mouse model", "type": "in vivo", "settings": "data not shown", "text": "(§1) FXN fusion protein having the amino acid sequence of SEQ ID NO: 12 comprises a cell penetrating peptide, HIV-TAT (SEQ ID NO: 4), and a full length hFXN (SEQ ID NO: 1), linked through a linker at the N-terminus of the hFXN."}, "[4]": {"experiment": "Chemical stability study: HQ assay after chemical stress", "type": "biochemical", "experimental": "The goal of this experiment was to evaluate stability to chemical stress of an exemplary FXN fusion protein by evaluating the activity of the exemplary FXN fusion protein after its exposure to chemical stressors that may trigger protein denaturation and/or degradation of the FXN fusion protein.\nBriefly, study control was stored at 2-8° C. over the course of the study. Each treatment was conducted as follows:\ni. Acid treatment: 1N HCl was added to the solution containing FXN fusion protein until a pH≤4 was reached. The sample was kept at 37° C. for 2 days, and then the buffer exchanged for the buffer of the DS formulation. The sample was stored at 2-8° for the remainder of the study.\nii. Alkaline treatment: 1M Tris base was added to the solution containing FXN fusion protein until a pH≥10 was reached. The sample was kept at 37° C. for 2 days, and then the buffer was exchanged for the buffer of the DS formulation. The sample was stored at 2-8° C.\niii. Acid and Base control: solution containing FXN fusion protein was stored at 37° C. for 2 days, and then stored at 2-8° C.\niv. Oxidation stress treatment: exemplary FXN fusion protein was incubated in the presence of 0.05% hydrogen peroxide at 37° C. for 2 hours and then stored at 2-8° C.\nv. Oxidation control: exemplary FXN fusion protein was incubated at 37° C. for 2 hours and then stored at 2-8° C.\nvi. Heat stress treatment: exemplary FXN fusion protein was incubated at 50° for 2 hours then stored at 2-8° C.\nAll samples were analyzed for appearance, pH, protein quantification (by A280), size-exclusion ultra-performance liquid chromatography (SE-UPLC), reversed-phase high-performance liquid chromatography (RP-HPLC), ion-exchange high-performance liquid chromatography (IE-HPLC), reduced capillary electrophoresis sodium dodecyl sulfate (rCE-SDS), non-reduced capillary electrophoresis sodium dodecyl sulfate (nrCE-SDS), and free thiol (data not shown). The concentration of FXN fusion protein was determined by Western blot, and redox activity was determined using the HQ assay as described above."}, "[5]": {"settings": "in the presence and absence of metal ions; FIG. 1"}, "FXN-deficient cell lines": {"tested_on": "FXN-deficient cell lines", "experiment": "Genomic footprint of FXN-deficient cell lines before and after FXN fusion protein treatment", "type": "cell-based", "settings": "data not shown", "text": "as §1"}, "[6]": {"experiment": "Temperature stability study: HQ assay after one month storage", "type": "biochemical", "experimental": "The goal of this experiment was to evaluate thermal stability of an exemplary FXN fusion protein by evaluating the activity of the FXN fusion protein after short-term storage (one month) at different temperatures.\n(SPL1), 2-4° C. (SPL2) and 25° C. (SPL3), as compared to the DS control. […] (SPL1), 2-4° C. (SPL2) and 25° C. (SPL3), as compared to the DS control."}, "[7]": {"settings": "Acid and alkaline control: 37° C. for 2 days"}, "[8]": {"settings": "Acid stress: pH ≤4, at 37° C. for 2 days"}, "[9]": {"settings": "Alkaline stress: pH ≥10, at 37° C. for 2 days"}, "[10]": {"settings": "Heat stress: 50° C. for 2 hours"}, "[11]": {"settings": "Oxidation control: 37° C. for 2 hours"}, "[12]": {"settings": "Oxidation: 0.05% peroxide at 37° C. for 2 hours"}, "[13]": {"settings": "Study control: 2-8° C. for 2 hours"}, "[14]": {"settings": "Drug substance (DS) control (stored at −80° C.)"}}, "note": "Read-outs that look alike come from different tables or passages of the source."}
{"molecule": "NC(=O)C1=CN([C@@H]2O[C@H](COP(=O)(O)OP(=O)(O)OC[C@H]3O[C@@H](n4cnc5c(N)ncnc54)[C@H](OP(=O)(O)O)[C@@H]3O)[C@@H](O)[C@H]2O)C=CC1", "note": "[NADPH]", "values": [{"measurement": "effect on ROS production / redox activity of the FXN fusion protein", "setting": "FXN fusion protein", "value": "significantly diminished ROS production"}]}
{"molecule": "NC(=O)C1=CN([C@@H]2O[C@H](COP(=O)(O)OP(=O)(O)OC[C@H]3O[C@@H](n4cnc5c(N)ncnc54)[C@H](O)[C@@H]3O)[C@@H](O)[C@H]2O)C=CC1", "note": "[NADH]", "values": [{"measurement": "effect on ROS production / redox activity of the FXN fusion protein", "setting": "FXN fusion protein", "value": "did not affect the redox activity"}]}
{"molecule": "FXN fusion protein: cell penetrating peptide HIV-TAT linked through a linker to the N-terminus of full length hFXN; amino acid sequence of SEQ ID NO: 12 (protein) MYGRKKRRQRRRGGMWTLGRRAVAGLLASPSPAQAQTLTRVPRPAELAPLCGRRGLRTDIDATCTPRRASSNQRGLNQIWNVKKQSVYLMNLRKSGTLGHPGSLDETTYERLAEETLDSLAEFFEDLADKPYTFEDYDVSFGSGVLTVKLGGDLGTYVINKQTPNKQIWLSSPSSGPKRYDWTGKNWVYSHDGVSLHELLAAELTKALKTKLDLSSLAYSGKDA", "values": [{"measurement": "pH at which activity peaks", "setting": "[1]; pH 7.0 to 9.0", "value": "about 8.5"}, {"measurement": "superoxide-generating activity (Vi)", "setting": "[1]; pH of 7.4 or lower", "value": "almost no activity"}, {"measurement": "Mean Vi", "setting": "[2]; Plate 1, High control (10 µM FXN fusion protein)", "value": 5390.0}, {"measurement": "Mean Vi", "setting": "[2]; Plate 1, Low control (0.5 μM FXN fusion protein)", "value": 471.0}, {"measurement": "Mean Vi", "setting": "[2]; Plate 2, High control (10 μM FXN fusion protein)", "value": 4995.1}, {"measurement": "Mean Vi", "setting": "[2]; Plate 2, Low control (0.5 μM FXN fusion protein)", "value": 635.5}, {"measurement": "Mean Vi", "setting": "[2]; Plates 1 and 2 combined, High control (10 μM FXN fusion protein)", "value": 5192.5}, {"measurement": "Mean Vi", "setting": "[2]; Plates 1 and 2 combined, Low control (0.5 μM FXN fusion protein)", "value": 553.2}, {"measurement": "lag time to ROS generation", "setting": "[3]", "value": "approximately 2 hours"}, {"measurement": "cardiomyopathic phenotype, for example cardiac contractility", "setting": "FDRA mouse model", "value": "measurable improvement in the cardiomyopathic phenotype"}, {"measurement": "Result (% activity)", "setting": "[4]; [7]", "value": 79.7, "unit": "%"}, {"measurement": "Vi", "setting": "[4]; [7]", "value": "(1,730 Vi units)"}, {"measurement": "Result (% activity)", "setting": "[4]; [8]", "value": 23.7, "unit": "%"}, {"measurement": "Vi", "setting": "[4]; [8]", "value": "(689 Vi units)"}, {"measurement": "Result (% activity)", "setting": "[4]; [9]", "value": 0.02, "unit": "%"}, {"measurement": "Vi", "setting": "[4]; [9]", "value": "(0.7 Vi units)"}, {"measurement": "Result (% activity)", "setting": "[4]; [10]", "value": 96.9, "unit": "%"}, {"measurement": "Vi", "setting": "[4]; [10]", "value": "(2,820 Vi units)"}, {"measurement": "Result (% activity)", "setting": "[4]; [11]", "value": 59.5, "unit": "%"}, {"measurement": "Vi", "setting": "[4]; [11]", "value": "(1,730 Vi units)"}, {"measurement": "Result (% activity)", "setting": "[4]; [12]", "value": 2.2, "unit": "%"}, {"measurement": "Vi", "setting": "[4]; [12]", "value": "(63 Vi units)"}, {"measurement": "Result (% activity)", "setting": "[4]; [13]", "value": 100, "unit": "%"}, {"measurement": "Vi", "setting": "[4]; [13]", "value": "(2,908 Vi units)"}, {"measurement": "stability of HQ activity to acid stress", "setting": "[4]; acid stress", "value": "partly susceptible"}, {"measurement": "stability of HQ activity to alkaline stress", "setting": "[4]; alkaline stress", "value": "susceptible"}, {"measurement": "stability of HQ activity to heat stress", "setting": "[4]; heat stress applied for 2 hours", "value": "to a large extent, was resistant to heat stress"}, {"measurement": "stability of HQ activity to oxidation stress", "setting": "[4]; oxidation stress", "value": "susceptible"}, {"measurement": "enzymatic activity, as measured by ROS generation over time", "setting": "[5]", "value": "possesses enzymatic activity"}, {"measurement": "expression of a set of genes before and after treatment", "setting": "FXN-deficient cell lines", "value": "significant difference in the expression of a set of genes"}, {"measurement": "Result (% activity)", "setting": "[6]; [14]", "value": 100.2, "unit": "%"}, {"measurement": "Vi", "setting": "[6]; [14]", "value": "(1126 Vi units)"}, {"measurement": "Result (% activity)", "setting": "[6]; SPL1: −60° C. for 1 month", "value": 100, "unit": "%"}, {"measurement": "Vi", "setting": "[6]; SPL1: −60° C. for 1 month", "value": "(1123 Vi units)"}, {"measurement": "Result (% activity)", "setting": "[6]; SPL2: 2-4° C. for 1 month", "value": 66.4, "unit": "%"}, {"measurement": "Vi", "setting": "[6]; SPL2: 2-4° C. for 1 month", "value": "(746 Vi units)"}, {"measurement": "Result (% activity)", "setting": "[6]; SPL3: 25° C. for 1 month", "value": 23.4, "unit": "%"}, {"measurement": "Vi", "setting": "[6]; SPL3: 25° C. for 1 month", "value": "(263 Vi units)"}, {"measurement": "activity in the HQ Assay after storage", "setting": "[6]; storage in conditions other than −60° C. for one month", "value": "decreased activity"}]}
